# According to patent publication US20100167342:
# System: GlyExendin-4 (Glycine-extended Exendin-4, Exendin-4 precursor with C-terminal glycine)
Substance,N-terminal clipping of GlyExendin-4 (HPLC and LCMS of peptide expressed in STE13-disrupted clone D2),(N-2) impurity of GlyExendin-4 (HPLC of peptide expressed in DAP2-disrupted Pichia clone)
Pichia pastoris homolog of Saccharomyces cerevisiae STE13 dipeptidyl peptidase,the expressed GlyExendin-4 when checked by HPLC and LCMS was not N-terminally clipped,
Pichia pastoris homolog of Saccharomyces cerevisiae dipeptidyl peptidase DAP2,,This continued to show (N-2) impurity
